# Experimental data taken from patent publication US8992886B2, “Cyclic peptide analogues for non-invasive imaging of pancreatic beta-cells” (Board of Regents, the University of Texas System, priority 2009, dated 2015).
# Tests used:
# [1] = molecular target: GLP-1R (Homo sapiens, UniProt P43220); assay: cAMP accumulation in HEK293 cells stably expressing GLP-1R-GFP; assay type: cell-based; design: GFP; expressed in transfected cells; host or cells: HEK293
# Excerpt: In all cases, reactions were stopped with 1.2 M trichloroacetic acid and cAMP was isolated by the two column chromatographic method.
# [2] = molecular target: T1, GLP-1R in pancreas (Mus musculus, UniProt O35659); assay: Dynamic PET/CT imaging of ^64Cu-labeled peptides in normal mice; settings: ^64Cu labeled, normal mice, dynamic PET-CT
# T1 sequence (O35659 22-463): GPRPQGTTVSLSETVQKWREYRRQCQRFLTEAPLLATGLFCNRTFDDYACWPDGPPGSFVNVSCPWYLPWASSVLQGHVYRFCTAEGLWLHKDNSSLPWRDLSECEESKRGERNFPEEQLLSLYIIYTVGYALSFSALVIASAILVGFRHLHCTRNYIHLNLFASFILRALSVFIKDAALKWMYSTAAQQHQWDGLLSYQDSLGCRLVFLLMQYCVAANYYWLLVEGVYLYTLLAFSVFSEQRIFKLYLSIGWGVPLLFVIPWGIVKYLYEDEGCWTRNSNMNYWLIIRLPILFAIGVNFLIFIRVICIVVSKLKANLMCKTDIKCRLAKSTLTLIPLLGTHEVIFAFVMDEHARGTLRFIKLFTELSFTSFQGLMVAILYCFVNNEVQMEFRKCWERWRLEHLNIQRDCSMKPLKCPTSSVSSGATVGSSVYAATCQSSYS
# Experimental: Dynamic PET/CT scans were performed on a Siemens Inveon PET-CT multimodality system using normal male BABL/c mice (n=3 per peptide). Post-PET biodistribution was performed to verify the imaging findings.
# In addition, D-Ala^8 was also introduced to prevent the degradation by DPP-IV.
# FIG. 9 are graphs that show a comparison of contrast in pancreatic, liver and kidney microPET scans. […] Quantitative analysis based on microPET/CT 0-60 min dynamic scans, animal model: Normal BABL/c mice at 6-8 wks.
# [3] = in vivo; design: species or system Sprague-Dawley rats; settings: Sprague-Dawley, rat, iv, total radioactivity
# Experimental: Given this encouraging in vitro result, the tissue distribution of both conjugates in normal Sprague-Dawley rats was examined. […] The radiolabeled compounds were diluted with saline and be injected into rats (n=4 at each time point) via the tail vein. The animal number at each time point was chosen for statistical analysis. […] At the selected post-injection time points, animals were sacrificed, and organs of interest removed, weighed, and counted. The percent injected dose per gram (% ID/g) and percent injected dose per organ (% ID/organ) was calculated by comparison to a weighed, counted standard. Pharmacokinetic parameters were estimated by using either one- or two-compartment model.
# Chain of GLP-1R (P43220 24-463): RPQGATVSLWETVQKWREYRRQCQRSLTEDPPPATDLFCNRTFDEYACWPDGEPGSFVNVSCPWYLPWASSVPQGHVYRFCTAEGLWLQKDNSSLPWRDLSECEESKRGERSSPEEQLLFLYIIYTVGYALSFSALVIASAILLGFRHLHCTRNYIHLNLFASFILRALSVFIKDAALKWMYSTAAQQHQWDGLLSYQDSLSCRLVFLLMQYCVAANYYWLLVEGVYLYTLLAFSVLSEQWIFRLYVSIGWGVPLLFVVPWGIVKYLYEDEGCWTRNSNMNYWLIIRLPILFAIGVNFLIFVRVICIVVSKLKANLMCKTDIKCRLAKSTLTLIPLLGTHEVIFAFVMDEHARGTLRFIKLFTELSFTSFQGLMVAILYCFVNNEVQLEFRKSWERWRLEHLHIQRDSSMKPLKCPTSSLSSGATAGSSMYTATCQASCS
structure (smiles),measurement,setting,value
"CC[C@H](C)[C@H](NC(=O)[C@H](Cc1ccccc1)NC(=O)[C@H](CCC(=O)O)NC(=O)[C@H](CCCCN)NC(=O)[C@H](C)NC(=O)[C@H](C)NC(=O)[C@H](CCC(N)=O)NC(=O)[C@@H]1CCCCNC(=O)CC[C@H](NC(=O)[C@H](CO)NC(=O)[C@@H](NC(=O)[C@H](CC(=O)O)NC(=O)[C@H](CO)NC(=O)[C@@H](NC(=O)[C@H](Cc2ccccc2)NC(=O)[C@@H](NC(=O)CNC(=O)[C@H](CCC(=O)O)NC(=O)[C@@H](C)NC(=O)[C@@H](N)Cc2c[nH]cn2)[C@@H](C)O)[C@@H](C)O)C(C)C)C(=O)N[C@@H](Cc2ccc(O)cc2)C(=O)N[C@@H](CC(C)C)C(=O)N[C@@H](CCC(=O)O)C(=O)N1)C(=O)N[C@H]1CCC(=O)NCCCC[C@@H](C(=O)NCC(=O)N[C@@H](CCCNC(=N)N)C(=O)NCCCCCC(=O)N[C@@H](CSC2CC(=O)N(CCNC(=O)CN3CCN(CC(=O)O)CCN(CC(=O)O)CCN(CC(=O)O)CC3)C2=O)C(N)=O)NC(=O)[C@H](C(C)C)NC(=O)[C@H](CC(C)C)NC(=O)[C@H](Cc2c[nH]c3ccccc23)NC1=O (stereo partly drawn) [EM2198, HXEGTFTSDVSEYLEKQAAKEFIEWLVKGR, wherein X is D-Ala]",EC50,[1],~1 nM
same,pancreatic retention,[2],> 30 min
"CC[C@H](C)[C@H](NC(=O)[C@H](Cc1ccccc1)NC(=O)[C@H](CCC(=O)O)NC(=O)[C@H](CCCCN)NC(=O)[C@H](C)NC(=O)[C@H](C)NC(=O)[C@H](CCC(N)=O)NC(=O)CNC(=O)[C@H](CCC(=O)O)NC(=O)[C@H](CC(C)C)NC(=O)[C@H](Cc1ccc(O)cc1)NC(=O)[C@H](CO)NC(=O)[C@H](CO)NC(=O)[C@@H](NC(=O)[C@H](CC(=O)O)NC(=O)[C@H](CO)NC(=O)[C@@H](NC(=O)[C@H](Cc1ccccc1)NC(=O)[C@@H](NC(=O)CNC(=O)[C@H](CCC(=O)O)NC(=O)[C@H](C)NC(=O)[C@@H](N)Cc1c[nH]cn1)[C@@H](C)O)[C@@H](C)O)C(C)C)C(=O)N[C@@H](C)C(=O)N[C@@H](Cc1c[nH]c2ccccc12)C(=O)N[C@@H](CC(C)C)C(=O)N[C@H](C(=O)N[C@@H](CCCCN)C(=O)NCC(=O)N[C@@H](CCCNC(=N)N)C(=O)NCCCCCC(=O)N[C@@H](CSC1CC(=O)N(CCNC(=O)CN2CCN(CC(=O)O)CCN(CC(=O)O)CCN(CC(=O)O)CC2)C1=O)C(N)=O)C(C)C (stereo partly drawn) (64Cu complex, metal not drawn) [L-GLP-1, [Ala^8]GLP-1-Ahx-Cys]",tissue uptake at 20 min,[3]; % ID/g blood,0.78 ± 0.14 %ID/g
same,tissue uptake at 1 h,[3]; % ID/g blood,0.47 ± 0.03 %ID/g
same,tissue uptake at 4 h,[3]; % ID/g blood,0.62 ± 0.15 %ID/g
same,tissue uptake at 24 h,[3]; % ID/g blood,0.07 ± 0.07 %ID/g
same,tissue uptake at 20 min,[3]; % ID/g fat,0.35 ± 0.1 %ID/g
same,tissue uptake at 4 h,[3]; % ID/g fat,0.72 ± 0.57 %ID/g
same,tissue uptake at 24 h,[3]; % ID/g fat,0.01 ± 0.01 %ID/g
same,tissue uptake at 20 min,[3]; % ID/g heart,0.39 ± 0.23 %ID/g
same,tissue uptake at 1 h,[3]; % ID/g heart,0.11 ± 0.1 %ID/g
same,tissue uptake at 4 h,[3]; % ID/g heart,0.2 ± 0.06 %ID/g
same,tissue uptake at 20 min,[3]; % ID/g kidney,30.6 ± 6.76 %ID/g
same,tissue uptake at 1 h,[3]; % ID/g kidney,34.3 ± 5.42 %ID/g
same,tissue uptake at 4 h,[3]; % ID/g kidney,41.4 ± 4.98 %ID/g
same,tissue uptake at 24 h,[3]; % ID/g kidney,45.8 ± 2.94 %ID/g
same,tissue uptake at 20 min,[3]; % ID/g large int,0.19 ± 0.1 %ID/g
same,tissue uptake at 1 h,[3]; % ID/g large int,0.04 ± 0.04 %ID/g
same,tissue uptake at 4 h,[3]; % ID/g large int,0.67 ± 0.47 %ID/g
same,tissue uptake at 24 h,[3]; % ID/g large int,4.83 ± 1.16 %ID/g
same,tissue uptake at 20 min,[3]; % ID/g liver,1.13 ± 0.42 %ID/g
same,tissue uptake at 1 h,[3]; % ID/g liver,2.03 ± 0.25 %ID/g
same,tissue uptake at 4 h,[3]; % ID/g liver,3.34 ± 0.58 %ID/g
same,tissue uptake at 24 h,[3]; % ID/g liver,1.43 ± 0.21 %ID/g
same,tissue uptake at 20 min,[3]; % ID/g lung,1.92 ± 0.08 %ID/g
same,tissue uptake at 1 h,[3]; % ID/g lung,0.9 ± 0.14 %ID/g
same,tissue uptake at 4 h,[3]; % ID/g lung,1.02 ± 0.13 %ID/g
same,tissue uptake at 24 h,[3]; % ID/g lung,0.83 ± 0.18 %ID/g
same,tissue uptake at 20 min,[3]; % ID/g muscle,0.12 ± 0.01 %ID/g
same,tissue uptake at 24 h,[3]; % ID/g muscle,0.08 ± 0.1 %ID/g
same,tissue uptake at 20 min,[3]; % ID/g pancreas,0.34 ± 0.14 %ID/g
same,tissue uptake at 1 h,[3]; % ID/g pancreas,0.11 ± 0.11 %ID/g
same,tissue uptake at 4 h,[3]; % ID/g pancreas,0.4 ± 0.56 %ID/g
same,tissue uptake at 24 h,[3]; % ID/g pancreas,0.03 ± 0.06 %ID/g
same,tissue uptake at 20 min,[3]; % ID/g small int,0.38 ± 0.21 %ID/g
same,tissue uptake at 1 h,[3]; % ID/g small int,0.45 ± 0.24 %ID/g
same,tissue uptake at 4 h,[3]; % ID/g small int,0.93 ± 0.43 %ID/g
same,tissue uptake at 24 h,[3]; % ID/g small int,0.42 ± 0.16 %ID/g
same,tissue uptake at 20 min,[3]; % ID/g spleen,0.28 ± 7 %ID/g
same,tissue uptake at 1 h,[3]; % ID/g spleen,0.18 ± 0.08 %ID/g
same,tissue uptake at 4 h,[3]; % ID/g spleen,0.4 ± 0.35 %ID/g
same,tissue uptake at 24 h,[3]; % ID/g spleen,0.38 ± 0.47 %ID/g
same,tissue uptake at 20 min,[3]; % ID/g stomach,0.64 ± 0.28 %ID/g
same,tissue uptake at 1 h,[3]; % ID/g stomach,0.46 ± 0.28 %ID/g
same,tissue uptake at 4 h,[3]; % ID/g stomach,0.5 ± 0.15 %ID/g
same,tissue uptake at 24 h,[3]; % ID/g stomach,0.11 ± 0.04 %ID/g
